Substitutions are numbered along the chain they refer to.
B1: c2139 (antibody, human IgG4 S228P, kappa)
heavy: not shown
light: DVQMTQSPSSLSASVGDRVTITCRASQSIVHSNGNTYLHWYQQKPGKAPKFLIYKVSNRFSGVPSRFSGSGSGTDFTLTISSLQPEDFATYYCAQYTLVPLTFGQGTKLEIKRTVAAPSVFIFPPSDEQLKSGTASVVCLLNNFYPREAKVQWKVDNALQSGNSQESVTEQDSKDSTYSLSSTLTLSKADYEKHKVYACEVTHQGLSSPVTKSFNRGEC
notes: also called humanized Site II antibody; monospecific C5aR1 antibody
B2: c2137-e1711 (bispecific antibody, human IgG4 S228P, kappa)
heavy: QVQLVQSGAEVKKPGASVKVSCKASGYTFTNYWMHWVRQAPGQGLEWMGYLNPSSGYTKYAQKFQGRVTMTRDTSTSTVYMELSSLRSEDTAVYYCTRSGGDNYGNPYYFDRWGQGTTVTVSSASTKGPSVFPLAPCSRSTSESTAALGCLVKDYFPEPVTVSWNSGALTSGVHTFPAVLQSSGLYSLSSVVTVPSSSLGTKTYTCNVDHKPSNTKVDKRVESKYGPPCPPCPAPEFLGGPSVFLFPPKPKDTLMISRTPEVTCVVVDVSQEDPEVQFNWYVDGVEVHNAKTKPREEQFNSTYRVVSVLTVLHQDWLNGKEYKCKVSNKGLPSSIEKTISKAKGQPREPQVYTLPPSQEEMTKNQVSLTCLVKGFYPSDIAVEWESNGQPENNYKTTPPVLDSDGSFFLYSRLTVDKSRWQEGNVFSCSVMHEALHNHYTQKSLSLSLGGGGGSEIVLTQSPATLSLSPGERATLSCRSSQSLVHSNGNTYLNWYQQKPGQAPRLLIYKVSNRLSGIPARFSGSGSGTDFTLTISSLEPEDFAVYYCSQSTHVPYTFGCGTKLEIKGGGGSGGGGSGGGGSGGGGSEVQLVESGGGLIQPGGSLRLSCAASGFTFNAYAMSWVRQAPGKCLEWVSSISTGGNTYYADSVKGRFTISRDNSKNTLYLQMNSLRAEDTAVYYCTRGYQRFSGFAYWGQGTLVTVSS
light: B1 light with Y96S
notes: Tetravalent Fab-Fc-linker-scFv; also called humanized biparatopic antibody; biparatopic C5aR1 antibody
B3: c2137-e1711-Fcmod (bispecific antibody, human IgG4 S228P, kappa)
heavy: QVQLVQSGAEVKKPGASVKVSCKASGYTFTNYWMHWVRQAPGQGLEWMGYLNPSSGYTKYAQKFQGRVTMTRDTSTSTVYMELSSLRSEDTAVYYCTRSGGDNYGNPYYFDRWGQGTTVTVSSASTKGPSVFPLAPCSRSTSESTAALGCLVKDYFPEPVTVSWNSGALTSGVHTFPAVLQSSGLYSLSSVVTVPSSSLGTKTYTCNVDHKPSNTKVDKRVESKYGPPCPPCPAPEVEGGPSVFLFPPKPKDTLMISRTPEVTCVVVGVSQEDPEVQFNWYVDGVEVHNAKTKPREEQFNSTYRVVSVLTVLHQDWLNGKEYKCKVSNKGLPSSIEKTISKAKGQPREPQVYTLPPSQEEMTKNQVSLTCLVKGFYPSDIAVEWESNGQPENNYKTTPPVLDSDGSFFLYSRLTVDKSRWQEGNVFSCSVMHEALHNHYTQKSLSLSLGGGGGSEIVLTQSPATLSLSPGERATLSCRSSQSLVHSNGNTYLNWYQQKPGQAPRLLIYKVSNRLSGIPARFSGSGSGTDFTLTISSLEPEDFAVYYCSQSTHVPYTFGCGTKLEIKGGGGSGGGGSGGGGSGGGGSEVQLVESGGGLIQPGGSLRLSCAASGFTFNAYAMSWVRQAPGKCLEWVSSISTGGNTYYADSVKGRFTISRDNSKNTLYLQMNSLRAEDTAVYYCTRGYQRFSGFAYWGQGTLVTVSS
light: B1 light with Y96S
notes: Fab-Fc-linker-scFv; also called biparatopic antibody with modified Fc domain
B4: c2139-Fcmod (antibody, human IgG4 S228P, kappa)
heavy: not shown
light: B1 light
notes: also called c2139-Fmod; monospecific antibody with modified Fc domain

Experiments:
C5aR2 VLP [1] = target: T1, C5aR2 VLP (UniProt Q9P296 1-337); test: ELISA, C5aR2 VLP immobilized at 30 µg/mL, antibody titrated
C5aR2 VLP [2] = target: T1, C5aR2 VLP; test: ELISA, C5aR2 VLP immobilized, as in Example 1

T1 sequence (Q9P296 whole entry): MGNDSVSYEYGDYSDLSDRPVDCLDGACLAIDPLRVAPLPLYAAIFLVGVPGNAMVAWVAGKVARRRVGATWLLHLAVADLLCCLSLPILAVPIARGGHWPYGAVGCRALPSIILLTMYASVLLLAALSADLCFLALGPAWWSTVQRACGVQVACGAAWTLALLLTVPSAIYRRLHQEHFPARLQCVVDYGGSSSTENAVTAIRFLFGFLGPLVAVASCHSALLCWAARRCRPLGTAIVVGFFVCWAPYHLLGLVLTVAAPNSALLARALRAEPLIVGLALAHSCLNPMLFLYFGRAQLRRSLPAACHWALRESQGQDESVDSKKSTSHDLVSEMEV

Binder	binding result (C5aR2 VLP [1])	binding result (C5aR2 VLP [2])
B1	no binding	–
B2	no binding	–
B3	–	no binding
B4	–	no binding
